# Like-named read-outs stand apart in the source and are kept apart here.
# Experiments:
# [1] = target: T1, human KDR-Fc fusion (R&D Systems #357-KD-050) (human, UniProt P35968 20-764); assay: phage binding screen on KDR-Fc; class legend in paragraph 246
# T1 construct: bought
# [2] = target: T1, human KDR-Fc fusion (R&D Systems …); assay: as above; remark: listed apart in the source
# T1 sequence (P35968 20-764): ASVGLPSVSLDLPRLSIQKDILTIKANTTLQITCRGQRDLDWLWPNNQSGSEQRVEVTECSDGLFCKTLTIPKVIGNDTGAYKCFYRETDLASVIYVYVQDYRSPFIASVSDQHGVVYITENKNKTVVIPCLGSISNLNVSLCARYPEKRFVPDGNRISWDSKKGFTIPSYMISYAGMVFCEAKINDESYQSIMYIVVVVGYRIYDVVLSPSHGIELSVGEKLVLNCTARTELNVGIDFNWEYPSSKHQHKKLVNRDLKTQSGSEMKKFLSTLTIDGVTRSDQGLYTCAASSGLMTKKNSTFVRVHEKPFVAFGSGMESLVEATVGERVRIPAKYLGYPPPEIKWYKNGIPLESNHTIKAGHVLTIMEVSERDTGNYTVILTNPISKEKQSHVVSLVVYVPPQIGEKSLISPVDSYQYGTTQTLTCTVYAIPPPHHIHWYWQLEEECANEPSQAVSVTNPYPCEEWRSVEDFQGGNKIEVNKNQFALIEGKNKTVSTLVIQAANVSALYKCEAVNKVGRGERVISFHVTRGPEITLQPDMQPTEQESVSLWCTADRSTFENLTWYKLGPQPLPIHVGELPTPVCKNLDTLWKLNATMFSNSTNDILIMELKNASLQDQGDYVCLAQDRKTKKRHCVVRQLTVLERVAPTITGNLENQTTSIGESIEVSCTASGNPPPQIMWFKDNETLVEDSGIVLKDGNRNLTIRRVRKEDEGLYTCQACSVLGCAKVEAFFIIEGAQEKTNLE
Binder,binding result [1],binding result [2]
LVMCISPEGYCYEI [phage isolate LVMCISPEGYCYEI],binds,–
TITCWMDTGHCMHE [phage isolate TITCWMDTGHCMHE],binds,–
GITCYSATGKCQMW [phage isolate GITCYSATGKCQMW],binds,–
WVECFMDTGACYTF [phage isolate WVECFMDTGACYTF],binds,–
SVECFMDTGACYTF [phage isolate SVECFMDTGACYTF],binds,–
LNICKEDWYYCFLL [phage isolate LNICKEDWYYCFLL],binds,–
DFNCKMIDGFCLLK [phage isolate DFNCKMIDGFCLLK],binds,–
WRICWESSWGGEVCIGH [phage isolate WRICWESSWGGEVCIGH],–,binds
WIECYHPDGICYHF [phage isolate WIECYHPDGICYHF],binds,–
PTWCEDDWYYCWLF [phage isolate PTWCEDDWYYCWLF],binds,–
WTECHYATGKCHSF [phage isolate WTECHYATGKCHSF],binds,–
KELCEDDWYYCYLM [phage isolate KELCEDDWYYCYLM],binds,–
AVTCWALTGHCVEE [phage isolate AVTCWALTGHCVEE],binds,–
PDWCAADWYYCYIT [phage isolate PDWCAADWYYCYIT],binds,–
SRVCWEDSWGGEVCFRY [phage isolate SRVCWEDSWGGEVCFRY],–,binds
WEWCPIDAWECIML [phage isolate WEWCPIDAWECIML],binds,–
LIECYAHTGLCFDF [phage isolate LIECYAHTGLCFDF],binds,–
GITCYSDTGKCFSF [phage isolate GITCYSDTGKCFSF],binds,–
WIECHYKTGHCIHS [phage isolate WIECHYKTGHCIHS],binds,–
YVDCYYDTGRCYHQ [phage isolate YVDCYYDTGRCYHQ],binds,–
VWECAKTFPFCHWF [phage isolate VWECAKTFPFCHWF],binds,–
WIQCDRKAGRCSRG [phage isolate WIQCDRKAGRCSRG],binds,–
WVECWWKSGQCYEF [phage isolate WVECWWKSGQCYEF],binds,–
WVECWWKYGQCYEF [phage isolate WVECWWKYGQCYEF],binds,–
GVWCDMVTGWCYHG [phage isolate GVWCDMVTGWCYHG],binds,–
HWWCAFQPQECEYW [phage isolate HWWCAFQPQECEYW],binds,–

Binder,binding result [1],binding result [2]
TGNCQEDWYYCWYF [phage isolate TGNCQEDWYYCWYF],binds,–
WVQCASDTGKCIMG [phage isolate WVQCASDTGKCIMG],binds,–
SRVCWEYSWGGEVCYRV [phage isolate SRVCWEYSWGGEVCYRV],–,binds
HWECYSDTGKCWFF [phage isolate HWECYSDTGKCWFF],binds,–
HYECWYPEGKCYFY [phage isolate HYECWYPEGKCYFY],binds,–
WYWCHHIGMYCDGF [phage isolate WYWCHHIGMYCDGF],binds,–
GEQCSNLAVACCST [phage isolate GEQCSNLAVACCST],binds,–
YPWCHELSDSVTRFCVPW [phage isolate YPWCHELSDSVTRFCVPW],–,binds
YPWCHEHSDSVTRFCVPW [phage isolate YPWCHEHSDSVTRFCVPW],–,binds
YGVCWEYSWGGEVCLRF [phage isolate YGVCWEYSWGGEVCLRF],–,binds
GINCYPATGKCQMG [phage isolate GINCYPATGKCQMG],binds,–
FGECWEYFWGGEFCLRV [phage isolate FGECWEYFWGGEFCLRV],–,binds
PEWCEVDWYYCWLL [phage isolate PEWCEVDWYYCWLL],binds,–
WIQCNSITGHCTSG [phage isolate WIQCNSITGHCTSG],binds,–
WIQCDMETGLCTHG [phage isolate WIQCDMETGLCTHG],binds,–
GVECYKHSGMCRSW [phage isolate GVECYKHSGMCRSW],binds,–
WLECYAEFGHCYNF [phage isolate WLECYAEFGHCYNF],binds,–
WLECYTEFGHCYNF [phage isolate WLECYTEFGHCYNF],binds,–
WIICDGNLGWCWEG [phage isolate WIICDGNLGWCWEG],binds,–
SKWCEQDWYYCWLL [phage isolate SKWCEQDWYYCWLL],binds,–
PNTCETFDLYCWWI [phage isolate PNTCETFDLYCWWI],binds,–
RNWCEEDWYYCFIT [phage isolate RNWCEEDWYYCFIT],binds,–
SNWCEEDWYYCYIT [phage isolate SNWCEEDWYYCYIT],binds,–
VNWCEEDWYYCWIT [phage isolate VNWCEEDWYYCWIT],binds,–
PDWCEEDWYYCWIT [phage isolate PDWCEEDWYYCWIT],binds,–

# Source: patent EP2014310A2 (Dyax Corporation, dated 2009)
